Experimental data taken from patent US20080003614.

Experiments:
[1] = tested on: 35S-labeled FLAG-MAVS (in vitro translated)
[2] = tested on: 35S-labeled FLAG-MAVS-C508R (in vitro translated)

Substance | cleavage of 35S-labeled MAVS in vitro (SDS-PAGE, PhosphorImaging) [1] | cleavage of 35S-labeled MAVS in vitro (SDS-PAGE, PhosphorImaging) [2]
Flag-NS3/4A (S139A), protease-dead mutant | the wild type MAVS was cleaved by the active NS3/4A protease, but not the inactive NS3/4A mutant | –
Flag-NS3/4A (wild type hepatitis C virus NS3/4A serine protease) | the wild type MAVS was cleaved by the active NS3/4A protease | a point mutation at Cys-508 completely blocked the cleavage of MAVS by NS3/4A in vitro
